Experimental data taken from the DeepSol protein solubility set.

experiment: soluble on expression in E. coli; label from the status in PepcDB or PDB records

Row | Sequence | soluble on expression in E. coli
1 | MAHHHHHHMMYSRLFHESLGIVIISPSRSSASPALVIADAFYSAMRLQVMLAMPFVQPRFASIFRLLLRAVPLLPPFMATFTFRRCTSDLSRRSAMRCFTARLQLLTFETLLCGSHGVLPPPARLAAACARAKEEFALQCSTSAPPPTKLTTAVVATHLLHNNLRDAAAVLASHPCQQQVLEEVRDYVRQHPGVFSVSTLTGMLEEARCVSPAAVATFLRAAVDEFLRGSSAASTVGDEATAWDAQRENLRSLVLRHIRFYPACVSFLLGSLCAVSRGCAGDREDVIEVMQIAMRERSMNPRDFGGVLDVVWKSREPRRVAMMWAWMQHTSACWDVRAASIAIMAFSELHQMDEAVACIQRLAEADGDPTIDAQVAFVRFLGVRTPSLLRYAAQLVLHWHPSGERLWRGEPQAVGMELVKICCACGERKWAVEMLEQMVATNASVPAELEAFMLRPGAAALGEHYSASVAASKTLQELFIDVPLRLPNLGEQPALVGLLLSLGMVTNRLPEVYDALEKASLTPANFQDALDCFVTGSVVKAASPVAVLACVREAGVRTGHKVPKEMESWLQLATEM | not soluble
2 | MKVDSLHNLSYKEEFEGDMKRSTAAYKKVSEDASIGSTYIADISEVGSQISGEPVQRIKIPEHRQILKRSLIKPVIMAGGNGKRLWPLASKDKPKQFKKILSDLTLLQQTLNRNKFLGQPTIITSKKYESITKEQATEIDVEIALITEPLQKNTAVCAIITALSATALGFDIVVLLPSNHHIADDINYLNTINKALHYVNECGICTIFL | not soluble
3 | MGSDKIHHHHHHMGDIQYTVRDDLKLFVNSIMVQQSADGNARFRLPLYADGYPGIMFQQSESGFFRFPESKQLSEFFLYGQTLEPISLEVQGTYRFVVFQLYPFASKYLLGIDPKELNDACYDLMQFQYIDMEVYSKQLTAAPDPESLIACMSDGVAALIGLNKPPHNDRIQQAIKQIIETEGRMRISDLSEAVCLSERTLERNFLGEVGLSPKQFAKIIQFQSSLTKLTDANAETLTAIGLDSGFTDQSHFIRVFKQYTGQTPSQYIKNQTR | not soluble
4 | MSLGIVIYGTRVIYPAEKKEVVVQLVNQGEQASLVQSWIDDGNTSLPPEKIQVPFMLTPPVARVAAESGQQIKIKKMPNSLPDNKESLFYLNVLDIPPNSQENAGKNVLKFAMQNRIKLIWRPSRIAAVTKDSFQRIGLFRSNKAVIMKNDTANWITVTDVKAGNTKINDQTIMLPPLSTQNINMKYASTSQYEVTIIDDNGNYISSKMNVKEGHHHHHH | soluble
5 | HYTSPTVIQAIYNAVEQMDFTPGTVLEPSMGIGNFFGMLPEKLAAAKLYGVELDDLTGRIARQLYQKADITVDGFERTDHPDDFFDLAVGNVPFGSYQVHDKRYDRQNLMIHDYFITKTLDKVRPGGIVAFITTKGTMDKKNSKAREALAQKADLLGAVRLPSNAFKANAGTEVTTDILFFQKRDRIPEKLPEWVEVGQTEDGIPLNRYFLDHPEMVLGTM | not soluble
6 | MGSDKIHHHHHHMKRIDLNGFWSVRDNEGRFSFEGTVPGVVQADLVRKGLLPHPYVGMNEDLFKEIEDREWIYEREFEFKEDVKEGERVDLVFEGVDTLSDVYLNGVYLGSTEDMFIEYRFDVTNVLKEKNHLKVYIKSPIRVPKTLEQNYGVLGGPEDPIRGYIRKAQYSYGWDWGARIVTSGIWKPVYLEVYRARLQDSTAYLLELEGKDALVRVNGFVHGEGNLIVEVYVNGEKIGEFPVLEKNGEKLFDGVFHLKDVKLWYPWNVGKPYLYDFVFVLKDLNGEIYREEKKIGLRRVRIVQEPDEEGKTFIFEINGEKVFAKGANWIPSENILTWLKEEDYEKLVKMARSANMNMLRVWGGGIYEREIFYRLCDELGIMVWQDFMYACLEYPDHLPWFRKLANEEARKIVRKLRYHPSIVLWCGNNENNWGFDEWGNMARKVDGINLGNRLYLFDFPEICAEEDPSTPYWPSSPYGGEKANSEKEGDRHVWYVWSGWMNYENYEKDTGRFISEFGFQGAPHPETIEFFSKPEEREIFHPVMLKHNKQVEGQERLIRFIFGNFGKCKDFDSFVYLSQLNQAEAIKFGVEHWRSRKYKTAGALFWQFNDSWPVFSWSAVDYFKRPKALYYYARRFFAEVLPVLKKRDNKIELLVVSDLRETKEVSLRLAAYEKKGEKVFEKTYRTVLPADGVSLVDRVELPDDLFFFVEAEVDGVKYRNYRVFRKWRDLELPDPEISLEDMGELIELTAQRPAFGVKILSDEVPEDDFLFLEPGRSITLKKPDGVRGVKSLFDYLR | not soluble
7 | MSDVDADEARKMAERERKKEEVRKRLEEASRMKKAKKGFLTPERKKKLRKLLMMKAAEDLKQQQMLKEQERQRILQERIIPLPDLDNEDDLEAVYDEIRERLIDLESENYDVSYIVRQKDFEINELTIAVNDLRGKFVKPTLKKVSKTEGKFDKLKKKEATKVDFRAQLKVVDKNEFALDEEDTEKKEKAAWAK | not soluble
8 | MVTAEIRLYITEGEVEDYRVFLERLEQSGLEWRPATPEDADAVIVLAGLWGTRRDEILGAVDLARKSSKPIITVRPYGLENVPPELEAVSSEVVGWNPHCIRDALEDALDVI | not soluble
9 | VGKEKREIELFVSDPELEAEVKAASEGKMKAAIKTEEKKAREAAIEEVKEEILESYKAKELENEAEILGEVAHILEMIEKDEMRRLISQDKIRPDGRKVNEIRP | not soluble
10 | DKLTRQPFFIKLINYLQIHDDVTLRQIKRNFADTEHLERSIEDYVQAGYVLRENKHYYNAFELLENLDGLTLDSQIFVDDQSSIYQDLLALTFETYLSNQTNAALIIEKTDISRDALTLSNYFFKLNENFPLSRKQKPLYHLLGDVNPNYALKYMTTFLLKFWGKDVVKQKRPDIFVQALVLLGYLEQVGKQSYCLKMTFDKEKLIFAS | soluble
11 | MPAQIEDYALLGNCRSAALVSRDGALDWLCLPRFDAPAVFAALLGNEENGRWRLAPCDPVTHSSRQYLGDTLVLETTWVTASGRARVLDFMPLGEVNSVVRIVEGLSGETHFEMDLVMRFDYGLEHHHHHH | not soluble
12 | MNIFTEAAKLEEQNCPFAMAQIVDSRGSTPRHSAQMLVRADGSIVGTIGGGMVERKVIEESLQALQERKPRLFHGRMARNGADAVGSDCGGAMSVFISVHGMRPRLVLIGAGHVNRAIAQSAALLGFDIAVADIYRESLNPELFPPSTTLLHAESFGAAVEALDIRPDNFVLIATNNQDREALDKLIEQPIAWLGLLASRRKVQLFLRQLREKGVAEEHIARLHAPVGYNIGAETPQEIAISVLAEILQVKNNAPGGLMMKPSHPSGHQLVVIRGAGDIASGVALRLYHAGFKVIMLEVEKPTVIRCTVAFAQAVFDGEMTVEGVTARLATSSAEAMKLTERGFIPVMVDPACSLLDELKPLCVVDAILAKQNLGTRADMAPVTIALGPGFTAGKDCHAVIETNRGHWLGQVIYSGCAQENTGVPGNIMGHTTRRVIRAPAAGIMRSNVKLGDLVKEGDVIAWIGEHEIKAPLTGMVRGLLNDGLAVVGGFKIGDIDPRGETADFTSVSDKARAIGGGVLEALMMLMHQGVKATKEVLEVALEHHHHHH | not soluble
13 | MGSDKIHHHHHHMKPIATPDPIIAQAVKLFAERGYAETNLPSIAKAANVAVGTIYRHFKGKEDILNTAFTDIMDYFHDSLADAANCNVSDPESTFSHLFDAAALTMQHYPTELHFIEQNVFNEALRPESRAARDRVTTLISNMLMEGQEHGVIVKADVRTQLAILYGSIVSMIDIVWVQQQLQGHVPDQDQLALELKNQIWNGLTCERSIFQ | not soluble
